Measurements reported in patent US20170044251A1.

Legend:
Experiment in all cases: ELISA on coated peptide-OVA conjugate, FCA control egg yolk sample, dilution not given
[1] = biological target: IL-10 Peptide #3 (SEQ ID NO: 7) conjugated to hen ovalbumin (avian animals, such as chickens, quail, and turkeys; hen) (UniProt P01012)
[2] = biological target: IL-10 Peptide #4 (SEQ ID NO: 10) conjugated to hen ovalbumin (avian animals, such as chickens, quail, and turkeys; hen) (UniProt P01012)
[3] = biological target: IL-10 Peptide #1 (SEQ ID NO: 1) conjugated to hen ovalbumin (avian animals, such as chickens, quail, and turkeys; hen) (UniProt P01012)

FCA control egg antibody
optical density [1]: 0.499 OD 450 nm
optical density [2]: 0.6 OD 450 nm
optical density [3]: 0.56 OD 450 nm
